Tests used:
Experiment in all cases: SPR
[1] = biological target: recombinant GP38 of CCHFV 200406546-Turkey (CCHFV 200406546-Turkey, UniProt A0A0U2SQZ0, strain)
[2] = biological target: recombinant GP38 of CCHFV Kosova-Hoti (CCHFV Kosova-Hoti, UniProt B2BSL7, strain)
[3] = biological target: recombinant GP38 of CCHFV Oman-199809166 (CCHFV Oman-199809166, UniProt A0A0U3C6Q7, strain)

Measured: Kd

B1: ADI-58048 IgG (antibody, V domains shown)
VH: QLQLQESGPGLVKPSETLSLTCTVSGGSITTSHYYWGWIRQPPGKGLEWVGSMYYSGGIYYNPSLKGRVTISVDTSKNQFSLKLSSVTAADTAVYYCALADAPDDAFDIWGQGTMVTVSS
VL: DIQMTQSPSSLSAFVGDRVTITCRASQSISSYLNWYQQKPGKAPKLLIYAASTLQSGVPSRFSGSGSGTDFTLTISSLQSEDFATYYCQESYSIPFTFGPGTKVDIK
< 398 pM: all assays above
